The source of these data is patent publication US20240148892A1 (DUALITY BIOLOGICS SUZHOU, published 2024).

The target in test [1] is T1, cynomolgus monkey B7H3 on transfected FlpinCHO cells (cynomolgus monkey).
T1 construct: whole, on cells; also called W3XX088-FlpinCHO.cPro1.pool
Put plainly: flow cytometry (FACS) on FlpinCHO cells transfected with cynomolgus monkey B7H3. On the procedure:
FACS was used to detect the binding of antibodies to cynomolgus monkey B7H3. FlpinCHO cells were transfected with cynomolgus monkey B7H3 (W3XX088-FlpinCHO.cProl.pool) (1×10⁵ cells/well), and the transfected cells were incubated with various concentrations of antibodies (3.16-fold serially diluted with 1×DPBS/1% BSA from 50 nM to 0.0005 nM) in a volume of 100 μL/well in a refrigerator set to 4 ° C. for 1 h. Anti-human B7H3 reference antibody enoblituzumab (MacroGeneics) was used as a positive control. Human IgG1 isotype antibody was used as a negative control. After washing the cells with 1×DPBS/1% BSA, Alexa 647 goat anti-human antibody (diluted in a 1:500 ratio in 1×DPBS/1% BSA) was added. The cells were incubated in a refrigerator set to 4° C. for 0.5 h in the dark. The mean fluorescence intensity (MFI) of the cells was measured by a flow cytometry and analyzed by FlowJo. EC₅₀ values were calculated by four-parameter non-linear regression analysis using GraphPad Prism 7 software.

Test [2] has as its target T2, human 4IgB7H3 extracellular domain, 6xHis (human, UniProt Q5ZPR3 29-461).
T2 construct: range 29-461; Made in house in Expi293F cells; 47.8 kDa used in the SPR calculation; also called analyte human 4IgB7H3
T2 sequence: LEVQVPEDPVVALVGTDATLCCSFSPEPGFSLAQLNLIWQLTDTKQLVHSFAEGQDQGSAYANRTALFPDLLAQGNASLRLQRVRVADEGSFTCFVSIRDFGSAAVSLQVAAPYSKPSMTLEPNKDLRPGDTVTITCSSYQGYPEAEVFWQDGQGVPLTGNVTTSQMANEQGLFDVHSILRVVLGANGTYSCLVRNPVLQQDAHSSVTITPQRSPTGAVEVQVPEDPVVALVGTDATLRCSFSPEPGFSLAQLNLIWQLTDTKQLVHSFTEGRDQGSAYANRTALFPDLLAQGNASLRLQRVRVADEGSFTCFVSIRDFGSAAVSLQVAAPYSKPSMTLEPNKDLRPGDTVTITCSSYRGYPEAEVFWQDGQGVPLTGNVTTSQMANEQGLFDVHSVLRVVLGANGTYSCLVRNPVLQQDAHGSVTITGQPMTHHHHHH
The experiment in a line: SPR (Biacore 8K), antibody captured on anti-human Fc IgG, human 4IgB7H3 as analyte, 1:1 model. On the procedure:
(§1) The affinity of antibodies for human 4IgB7H3 was determined using surface plasmon resonance (SPR). The affinity of antibodies for human 4IgB7H3 was determined by Biacore 8K. An activator was prepared by mixing 400 mM EDC and 100 mM NHS (GE) immediately prior to injection into the channel. The CMS sensor chip was activated for 420 seconds with the activator. Goat anti-human Fc IgG (30 μg/mL in 10 mM NaAc, pH 4.5) was then injected into the channel at a flow rate of 10 μL/min for 420 seconds. The chip was deactivated by 1 M ethanolamine hydrochloric acid. The antibodies diluted in running buffer (1×HBS-EP+) were injected into the channel at a flow rate of 10 μL/min for 30 seconds. […] Glycine (10 mM, pH 1.5) was injected as regeneration buffer after the dissociation phase.
The sensorgrams for the reference channel and the buffer channel were subtracted from the test sensorgrams. The experimental data were fitted with a 1:1 binding model. The molecular weight of the human 4IgB7H3 used in the calculation was 47.8 kDa.
(§2) The experimental data were fitted by a 1:1 binding model bundled with the Biacore 8K evaluation software.

The target of test [3] is T3, Human B7-H3/CD276 protein, His tag (2IgB7H3) (human, UniProt Q5ZPR3-2 29-245).
T3 construct: Bought protein; 25.2 kDa used in the SPR calculation; also called human 2IgB7H3; ACRO B73-H52E2; not shown: His tag
T3 sequence (looked up): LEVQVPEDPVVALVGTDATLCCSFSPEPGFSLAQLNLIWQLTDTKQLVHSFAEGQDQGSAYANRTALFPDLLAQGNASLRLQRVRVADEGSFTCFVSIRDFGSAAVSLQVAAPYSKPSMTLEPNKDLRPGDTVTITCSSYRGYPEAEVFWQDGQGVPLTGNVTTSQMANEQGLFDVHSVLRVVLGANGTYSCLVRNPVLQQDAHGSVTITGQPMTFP
Put plainly: SPR (Biacore 8K), antibody captured on anti-human Fc IgG, human 2IgB7H3 as analyte, 1:1 model. On the procedure: as §1, with “2IgB7H3” for “4IgB7H3”
The sensorgrams for the reference channel and the buffer channel were subtracted from the test sensorgrams. The experimental data were fitted with a 1:1 binding model. The molecular weight of the human 2IgB7H3 used in the calculation was 25.2 kDa.
as §2

Test [4] deals with T4, Cynomolgus monkey B7-H3/CD276 protein, His tag (cynomolgus monkey).
T4 construct: Bought protein; 49 kDa used in the SPR calculation; also called ACRO B73-C52Ha
The experiment in a line: SPR (Biacore 8K), antibody captured on anti-human Fc IgG, cynomolgus monkey B7H3 as analyte, 1:1 model. As to the method: as §1, with “cynomolgus monkey B7H3” for “human 4IgB7H3”
The sensorgrams for the reference channel and the buffer channel were subtracted from the test sensorgrams. […] The molecular weight of the cynomolgus monkey B7H3 used in the calculation was 49 kDa.
as §2

B1: W301088-1.145.16-z3-p1-uIgG1KV320 (antibody, V domains shown)
VH: QVQLQESGPGLVKPSQTLSLTCTVTDYSITGDYAWNWIRQHPGKGLEWIGYISYSGSTSYNPSLQSRVTISRDTSKNQFSLKLSSVTAADTAVYFCARSLGRRWYFVVWGQGTTVTVSS
VL: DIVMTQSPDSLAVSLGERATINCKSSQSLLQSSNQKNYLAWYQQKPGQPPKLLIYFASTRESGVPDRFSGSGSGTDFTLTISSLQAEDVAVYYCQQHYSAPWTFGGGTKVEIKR
notes: Humanized, PTM-removed (VL N027dQ) human IgG1 LALA kappa antibody; also called WBP301088; W301088-z3-p1
B1 came in with an EC50 in test [1] of 4.68 nM. Also, in test [2], the affinity, expressed as Kd, was 0.0708 nM; the koff was determined as 4.65e-05 s⁻¹; the kon came to 657000 M⁻¹ s⁻¹. Besides, in test [3], the affinity, expressed as Kd, was 46.4 nM; the off-rate (koff) came out at 0.0141 s⁻¹; the kon was 303000 M⁻¹ s⁻¹. In test [4], this molecule registered a Kd of 0.0574 nM, a koff of 3.02e-05 s⁻¹ and a kon of 527000 M⁻¹ s⁻¹.

B2: Enoblituzumab (MacroGenics) (antibody, V domains shown)
VH: EVQLVESGGGLVQPGGSLRLSCAASGFTFSSFGMHWVRQAPGKGLEWVAYISSDSSAIYYADTVKGRFTISRDNAKNSLYLQMNSLRDEDTAVYYCGRGRENIYYGSRLDYWGQGTTVTVSS
VL: DIQLTQSPSFLSASVGDRVTITCKASQNVDTNVAWYQQKPGKAPKALIYSASYRYSGVPSRFSGSGSGTDFTLTISSLQPEDFATYYCQQYNNYPFTFGQGTKLEIKR
Regarding B2, the EC50 in test [1] stood at 9.58 nM. In test [2], the Kd amounted to 1.02 nM, the dissociation rate constant (koff) was 0.000126 s⁻¹ and the kon came out at 124000 M⁻¹ s⁻¹. Further, in test [3], the Kd amounted to 261 nM, the koff came to 0.0168 s⁻¹ and the kon was 64400 M⁻¹ s⁻¹. In test [4], the Kd amounted to 0.441 nM, the koff amounted to 8.14e-05 s⁻¹ and the kon was determined as 185000 M⁻¹ s⁻¹.

B3: W301088-1.145.16-xIgG1KV320 (antibody, V domains shown)
VH: DVQLQESGPGLVKPSQSLSLTCTVTDYSITGDYAWNWIRQFPGNKLEWMGYISYSGSTSYNPSLQSRISITRDTSKNQFFLQLNSVTSEDTATYFCARSLGRRWYFVVWGAGTTVTVSA
VL: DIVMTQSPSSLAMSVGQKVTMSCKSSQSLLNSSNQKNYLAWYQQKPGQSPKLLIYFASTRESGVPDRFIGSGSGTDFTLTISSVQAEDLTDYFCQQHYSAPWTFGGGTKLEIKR
Take B3: the half-maximal effective concentration (EC50) in test [1] was determined as 5.25 nM. Also, in test [2], the Kd was 0.0515 nM, the koff was 3.39e-05 s⁻¹ and the on-rate (kon) stood at 657000 M⁻¹ s⁻¹. For the same molecule, in test [3], binding was characterised by a dissociation constant (Kd) of 57.7 nM, the off-rate constant (koff) is 0.0136 s⁻¹ and the kon stood at 235000 M⁻¹ s⁻¹. In test [4], binding was characterised by a dissociation constant (Kd) of 0.0564 nM, the koff was 2.94e-05 s⁻¹ and the kon was 521000 M⁻¹ s⁻¹.
